From PMC6265484, “Homodimerization regulates an endothelial specific signature of the SOX18 transcription factor”

Columns and labels:
[1] = molecular target: T1, SOX18 full length (mouse, UniProt P43680 1-377); assay: fluorescence polarization; 2 mM Mg2+; FP: 30 mM HEPES pH 7.5, 100 mM KCl, 40 mM NaCl, 10 mM ammonium acetate, 10 mM guanidinium HCl, 2 mM MgCl2, 0.5 mM EDTA, 0.01% NP-40, room temp, 5 nM DNA, 5-150; details: protein: recombinant; tags: N-terminal HIS-GST; chain copies: 2; label: 5'-fluorescein; blunt
T1 sequence (P43680 whole entry): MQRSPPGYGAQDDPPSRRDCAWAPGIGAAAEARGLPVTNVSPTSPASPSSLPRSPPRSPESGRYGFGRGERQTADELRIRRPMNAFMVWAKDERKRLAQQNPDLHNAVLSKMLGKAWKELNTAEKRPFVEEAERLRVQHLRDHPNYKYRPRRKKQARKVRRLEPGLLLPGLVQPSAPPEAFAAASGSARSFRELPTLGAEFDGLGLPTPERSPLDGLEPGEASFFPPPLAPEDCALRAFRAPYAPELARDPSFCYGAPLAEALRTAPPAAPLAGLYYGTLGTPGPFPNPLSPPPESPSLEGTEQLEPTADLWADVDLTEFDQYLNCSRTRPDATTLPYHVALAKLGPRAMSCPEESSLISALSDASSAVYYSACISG

[2] = molecular target: T1, SOX18 full length; assay: fluorescence polarization; 2 mM Mg2+; maximum binding (highest mP); FP: 30 mM HEPES pH 7.5, 100 mM KCl, 40 mM NaCl, 10 mM ammonium acetate, 10 mM guanidinium HCl, 2 mM MgCl2, 0.5 mM EDTA, 0.01% NP-40, room temp, 5 nM DNA, 5-150; details: protein: recombinant; tags: N-terminal HIS-GST; chain copies: 2; label: 5'-fluorescein; blunt
[3] = molecular target: SOX18-HMG (Sox18_79) (mouse, UniProt P43680 77-155); assay: EMSA; 15 nM protein, 1 nM DNA, 50 uM Zn2+; two HMG bind; FP: 30 mM HEPES pH 7.5, 100 mM KCl, 40 mM NaCl, 10 mM ammonium acetate, 10 mM guanidinium HCl, 2 mM MgCl2, 0.5 mM EDTA, 0.01% NP-40, room temp, 5 nM DNA, 5-150; details: protein: recombinant; tags: pETG20A or pHisMBP vector; chain copies: 2; label: 5'-Cy5; blunt
SOX18-HMG (Sox18_79), sequence (P43680 77-155): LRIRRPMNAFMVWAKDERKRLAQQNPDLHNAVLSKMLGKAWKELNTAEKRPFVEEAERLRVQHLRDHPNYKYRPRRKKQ

[4] = molecular target: SOX9-HMG (UniProt Q04887 105-173); assay: EMSA; 50 uM Zn2+; two HMG bind; FP: 30 mM HEPES pH 7.5, 100 mM KCl, 40 mM NaCl, 10 mM ammonium acetate, 10 mM guanidinium HCl, 2 mM MgCl2, 0.5 mM EDTA, 0.01% NP-40, room temp, 5 nM DNA, 5-150; details: protein: recombinant; chain copies: 2; label: 5'-Cy5; blunt
SOX9-HMG, sequence (Q04887 105-173): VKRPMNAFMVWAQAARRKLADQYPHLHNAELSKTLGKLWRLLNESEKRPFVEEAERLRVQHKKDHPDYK

B1: IR1 (FP) (dsDNA)
DNA 1: CGCCAGTAGGGCAACAATGATTGTTGCTTCCGGGGGC
DNA 2: GCCCCCGGAAGCAACAATCATTGTTGCCCTACTGGCG
binding signal [1]: ~0.5 occupancy relative to IR5

B2: IR5 (FP) (dsDNA)
DNA 1: CGCCAGTAGGAACAATGCGGCATTGTTTTCCGGGGGC
DNA 2: GCCCCCGGAAAACAATGCCGCATTGTTCCTACTGGCG
binding result [2]: binds

B3: IR5 (EMSA) (dsDNA)
DNA 1: B2 DNA 1
DNA 2: B2 DNA 2
binding result [3]: binds | binding result [4]: binds
